In the nanobody polyreactivity screen of Harvey et al. (2022):

Test: yeast display, Sf9 membrane polyspecificity reagent, FACS + sequencing; frameworks hold sequencing errors
In short: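 A nanobody's polyreactivity label depends on the gate it was sorted from. Yeast display cells were stained with 10% biotinylated, detergent-solubilized Sf9 membrane reagent for 1 hour at 4 °C, enriched on streptavidin microbeads and sorted by FACS. The low and high (top ~1%) gates were set on anti-HA fluorescence for expression and streptavidin fluorescence for reagent binding.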

Sequence | polyreactivity (PSR sort gate)
QVQLVESGGGLVQAGGSLRLSCAASGITFVHYVMGWYRQAPGKERELVAVITKGGARTSYADSVKGRFTISRDNAKNTVYLQMNSLKPEDTAVYYCAAREVYPLFTKYYYWGQGTQVTVSS | high polyreactivity
QVQLVESGGGLVQAGGSLRLSCAASGRIFADNGMGWYRQAPGKERELVASITSSGGDTYYADSVKGRFTISRDNAKNTVYLQMNSLKPEDTAVYYCATEFSWLFYGVWVVTFGDDYWGQGTQVTVSS | low polyreactivity
QVQLVESGGGLVQAGGSLRLSCPASGRTFKYYAMGCYRQSPGKESELVAAITSTGGSTYYADSVKGRFTISRDNAMNTVYLQMNSLKPEDTAVYYCNRYTQYRDRSDNHWGQGTQVTVSS | high polyreactivity
QFQLVESGGGLVQAGGSLRLSCAASGSTFNYNAMGWYRQAPGKERELVAAISSSGGSTYYADSVKGRITISRDNAKNTVYLQMNSLKPEDTAVYSCATGGSSRVRTEGDYWGQGTQVTVSS | low polyreactivity
QVQLVESGGGLVQAGGSLRLSCAASGRIYFNAMGWYRQAPGKERELLADISWIGGSTYYADSVKGRFTISRDNGKNTVYLQMNRLKPEYTAVYYCAAVFLSWWDSYDFWGQGTQVTVSS | high polyreactivity
QVQLVESGGGLVQAGGSLRLSCDASGRIFYGYAMGWYRQAPGKERELVAAITYIGGTYYADSVKGRFTISRDNAKNTVYLQMNSMKPEDTAVYYCNALYRYLYRSGDFWGQGSQVTVSS | low polyreactivity
QDQLVESGGGLVQAGGSLRLSCAASGRTFVTYAMGWYRQAPGKEREFVAAITWSTGTSTYYADSVKGRFTISRDNAKNTVYLQMNSLKPEDTAGYYCAAYYVVHFGYWGQGTQVTVSS | low polyreactivity
QVQLVESGGGLVQAGGSLRLSCAASGLIFVDYTMGWYRQAPGKERELVAGISNSGNTNYADSVKGRFTISRDNAKNTVYLQMNSLKPEDTAVYYCAAVYTWYPWYPYDYWGQGTQVTVSS | low polyreactivity
QVQLQESVGGLVQAGGSLRLSCAASGSIFKVVDMGLYRQAPAKEREFVATIGEGGNTYYADSVKGRFTISRDNAKNTVYLQMNSLKPEDTAVYFYAVVLGTSYRYTYWGQGTLVTVSS | low polyreactivity
QVQLVESGGGLVQAGGSLRLSCAASGNTFNVYAMGWYRQAPGKERELVAAITLSGGSTYYADSVKGRFTISRDNAKNTVYLQMNSLKPEDTAVYYCNAEEVGTDYDYWGQGTQVTVSS | low polyreactivity
QVQLVESGGGLVQAGGSLRLSCAPSGSILRSYDMGWYRQAPGTERELVAAISSSGGSTYYADSVKGRFTISRDNAKNTVYLQMNSLKQEDTAVYYCAAATSRRFDYWGQGTQVTVSS | high polyreactivity
QVQLVESGGGLVQAGGSLRLRCAASGSTSPNAMGWYRQAPGKERELVAAIWSGGTYYADSVKGRFTISRDNAKNTVYLQMNSLKPEDTAVYYCAVTGVYRGFRYGYWGQGTQVTVSS | low polyreactivity
QVQLVESGGGLVQAGGSLRLRCAASGRTFDTYAMGWYRQAPWKERELVASITYRGGSTYYADSVKGRFTISRDNGKNTVYLQLNSLKPVDTAVYYCNAKVKRNKRWRGYWGQGTQVTVSS | high polyreactivity
QVQLVETGGGLVQAGGSLRLSCAASGSTFVYNAMGWYRPAPGNERELVAAITNSGSTYYADSVKGRFTISRDNAKNTVYLQMNSLKPEDTAVYDCAARSRVYWARSGYWGQGTQVTVSS | low polyreactivity
QDQLVESRGGLVQAGGSLRLSCAASGSTLSGNAMGWYRQAPGKERELVAAITSSGGRTYYADSVKGRFTISRDNAKNTVYLQMNSLKPEDTAVYYCAKDRYGWGQGTQVTVSS | high polyreactivity
QVQLVDSGGGLVQAGGSLRLSCAASGSNFGTYAMGWYRQAPGKERELVAAITTNGVSTYYADSVKGRFTISRDNAKNTVYLQMNSLKPEDTAVYYCAAPIQAWVRHLADIRYDYWGQGTQVTVSS | low polyreactivity
QVQLVESGGGLVQAGGSLRLSCAASGRTFIRYAMGWYRQAPGNERELVAAISWSGDRTYYADSVKGRFTISRDNAKNTVYLQMNSLKPEDTAVYYCNAYRYLRTATFLKFDYWGQGTQVTVSS | high polyreactivity
QVQLVESGGGLVQAGGSLRLSCAASGRIFTSNAMGWYSQAPGKERELVAAITKSGGSTYYADSVKGRFTISRDNAKNTVYLQMNSLKPEVTAVYYCSAYPTSRYKYEYWGQGNQVTVSS | high polyreactivity
QVQLVESGGGLVQAGGSLRLSCAASGRSFSIYAMGCYRQAPGKERELVASISRGISTNYADSVKGRFTISRDNAKNTVYLQMNSLKPEDTAVYYCASDLFSNYRYWGQGTQVTVSS | high polyreactivity
QVQLVESGGGLVQAGGSLRLSCAASGSTFLDYDMGWYRQAPGKERELVATINSVGSTYYADSVKGRFTISRDNAKNTVYLQMNSLKPEDTAVYYCAARQEPGWYPDVWWEYDYWGQGTQVTVSS | low polyreactivity
QVQLVESGGGLVQAGGSLRLSCAASVRIFVYNTMGWYRQAPGKERELVAAINYSGGSTYYADSVKGRFTISRDNAKNTVYLQMNSLKPEDTAVYYCAVKLRSRAGTSYGYWGQGTQVTVSS | high polyreactivity
QVQLVESGGGLVQAGGSLRLSCAASGSTFYGYGMGWYSQAPGKERELVAAITKSVGSTYYADSVNGRFTISRDNAKNTVYLQMNSLKPEDTAVYYCARSTRYRRGPSQYAGTYDYWGQGTQVTVSS | low polyreactivity

Sequence | polyreactivity (PSR sort gate)
QVQLVESGGGLVQAGGSLRLSCAASGRTFAFNTMGWYRQAPGKERELVDAIRFSAGSTYYADSVKGRFTISRDNAKNTVYLQMNSLKPEDTAVYYCAASYGDRGGWGPGVDYWGQGTQVTVSS | low polyreactivity
QVQLVESGGGLVQAGGSLRLSCAASGINFRLNAMGWYRQAPGKERELVAAIRRRGGSTYYADSVKGRFTISRDNAKNTVYLQMNSLIPEDTAVYYCAKDPHGSDFGYWGQGNQVTVSS | low polyreactivity
QVQLVESGGGLVQAGGSLRLSCAASGRILYGYTMGWYRQAPGKEREFVATITRGGSTYYADSVKGRFTISRDNAKNTVYLQMNSLKPEDTAVYYCAAELSLATPTVPWYLYNYWGQGTQVTVSS | low polyreactivity
QVQLVESGGGLVQAGGSLRLSCAASGSTFGRNTMGWYRQAPGKERELVAAISKSGGSTRYADSVKGRFTISRDNAKNTVYLQMNSVKPEDTAVYYCAARVYSLGYGGDYWGQGTQVTVSS | high polyreactivity
QDQLVESGGGLVQAGGSLRLSCAASGFTFQYYAMGWYRQAPGKERELVAAISRRGGRTDYADSVKGRFTISRDNAKNTVYLQINSLKPEDTEVYYCARDPGAFEYSGQGTQVTVSS | high polyreactivity
QVQLVESGGGLVQAGGSLRLSCAASGFTFYQYTMGRYRQAPGKERELVATITSDGGTNYADSVKGRFTISRDNAKNTVYLQMNSLKPEDTAVYYCARDYLSPYAVDYWGQGTQVTVSS | low polyreactivity
QVQLVESGGGLVQAGGSLRLTCAASGNTFYPYAMGWYRQGPGKERELVAAITSSGGSTYYADSVKGRFTISRDNANNTVYLQMNSLKPEDTAVYYCAADPDWYSPFKYVYWGQGTQVTVSS | low polyreactivity
QVHLVESGGGLVQAGGSLRISCAASGRTFYIYAMGWYRQAPGKERELVAAISWGSGSTYYADSVKGRFTISRDNAKNTVYLQMNSLKPEDTAVYYCAADYAYPSEWTYDYWGQGTQVTVSS | low polyreactivity
QVQLVETGGGLVQAGGSLRLSCAASGRPFHRYALGWYRQAPGKDRALGAAISRGGITYYADSVKGRFTISRDNAKNTVYLQMNSLKPEDTAVYYCAALYRYYHESSPFDYWGQGTQVTVSS | high polyreactivity
QVQLVESGGGLVQAGGSLRLSCAASGNICITYAMGWYRQAPGKEREFVAAISRRRGRTYYADSVKARFTISRDKAKNTVYLQMNSLKPVDTAVYYCAADPATSVYGGLNYWGQVTQVTVSS | high polyreactivity
QVQLVESGGGLVQAGGSLRLSCAASGRTFYYYYTMGWYRQAPGKERELVAAISRSGSTNYADSVKGRFTISRDNAKNTVYLQMNSLKPEDTAVYYCARSYRSDGSRFGYWGQGTQVTVSS | low polyreactivity
QVQLVESGGGLVQAGGSLRLSCAASGGIFSAYDMAWYRQAPGKERELVAAINSGGSTNYADSVKGRFTISRDNAKNTVYLQMNSLKPEDTAVYYCAAAKVSWFGLKYYYWGQGTQVTVSS | high polyreactivity
QVQLVESGGGLVQAGGSLRLSCAASGGNFKRYAMGWYRQAPGKERELVAAISGRGGSTYYADSVKGRFTISRDYAKNTVYLQMNSLKPEDTAVYYCDAYWRYRTDMDYWGQGTQVTVSS | high polyreactivity
QVQLVESGGGLVQAGGSLRLSCAASGRTFRLYAMGWYRQAPGKERELVASISRSVGSTYYADSVKGRFTISRDNAKNTVYLQMNSLKPEDTAVYYCAARSYIPGGWDGAYYYWGQGTQVTVSS | high polyreactivity
QVQLVESGGGLVQAGGSLRLSCAASGRTFFKNAMGWYRQAPGKERELVAAITSSGGTTYYADSVKGRFTISRDNAKNTVYLQMNSLKPEDTAVYYCATRTYPIRYGYGYWGQGTQVTVSS | high polyreactivity
QVQLVESGGGLVQAGGSLRLSCAASGYTFSRYAMGWYRPAPGKERELVAAITGRGGSTYYADSVKGRFTISRDNAKNTVYLLMNSLKPEDTAVYYCAVGRYPYVWRYYYWGQGTQVTVSS | high polyreactivity
QVQLEESGGGLVQAGGSLRLSCAASGSIFTANAMGWYRQAHGKERELVAAINRSGGRTYADSVKGRFTISRDNAKNTVYLQMNSLKPEDTAVYYCAAVGHVYKGHDFGYWGQGTQVTVSS | low polyreactivity
QVQLVESGGGLVQAGGSLRLSCASSGSTLFPYAMGWYRQAPGKERELVAAISSRGGRTYYADSVKGRFTISRDNAKNTVYLQMNSLKPEDTAVYYCAAGDDYWGQGTQVTVSS | high polyreactivity
QVQLVESGGGLVQAGGSLRLSCAASGFTFYYYAMGWYRQAPGKERELVAAISSSGGSTSYADSVKGRFTISRDNAKNTVYLQMNSLKPEDTAVYYCAAVYWQSGRGKMCYWGQGTQVTVSS | high polyreactivity
QVQLVESGGGIVQAGGSLRLSCAASGLIFYNYAMGWYRQAPGKERELVAAITSGGSTYYADSVKGRFTISRDNAKNTVYLQMNSLKPEDTAVYYCAADLTYTVPFDYWGQGTQVTVSS | high polyreactivity
QVQLVESGGGLVQAGGSLRLSCAASGFTFYRNAMGWYRQAPGKERELVAAITRRGGSTYYADSVKGRFTISRDNAKNTVYLQMISLKPEDTAVYYCSKSYRFPSVGPPGELDYWGQGTQVTVSS | high polyreactivity
